Test results published in patent US12144843B2, “Methods and compositions for modulating myofibroblast activities” (THE REGENTS OF THE UNIVERSITY OF CALIFORNIA, priority 2011, dated 2024).
“Also recorded” adds a separate entry of the source.

Assays:
[1] = tested on: myofibroblasts; assay: myofibroblast apoptosis; assay type: cell-based; conditions: for myofibroblast apoptosis: N=6
Excerpt: N=6. *, P<0.05; **, P<0.05.
(§1) Taken together, FMOD not only promotes TGF-β1-induced myofibroblast differentiation and contractility, but also accelerates myofibroblast clearance—resulting in lack of myofibroblast persistence in remodeling stage of FMOD-treated wounds.

[2] = tested on: rat dermal fibroblast (RDF); assay: western blotting and qRT-PCR of α-SMA expression in rat dermal fibroblasts; assay type: cell-based
Excerpt: Data are normalized to untreated RDFs at time 0 (dash lines). N=3. *, P<0.05.
(§2) Activity level of myofibroblast is related to the activity of fibromodulin. Fibromodulin can promote myofibroblast differentiation and apoptosis.

[3] = tested on: myofibroblast; assay: immunofluorescent (IF) staining for α-SMA stress fibers, myofibroblast differentiation in vitro; assay type: cell-based; conditions: FMOD combined with TGF-β1
Excerpt: Formation of stress fibers stained strongly for α-SMA are indicated by yellow arrows. Scale bar=100 μm.
as §2

[4] = tested on: RDF; assay: in vitro collagen gel contraction; assay type: cell-based, rat; conditions: FMOD alone; N=6
Excerpt: as §2

[5] = tested on: adult rat wounds; assay: PCR array assay of gene expression in adult rat wounds; assay type: in vivo; conditions: for expression of α-SMA in wounds: FMOD-treated adult rat wounds
Excerpt: Gene expression is normalized to unwounded skin (dashed lines). N=9 wounds from 9 animals. **, P<0.05.
Gene expression is normalized to unwounded skin (dashed lines). N=9 wounds from 9 animals. **, P<0.05

[6] = tested on: adult rat wounds; assay: α-SMA-positive myofibroblasts in wounds; assay type: in vivo; conditions: FMOD-treated wounds; day 14 post injury
Excerpt: as §1

[7] = tested on: adult rat skin wounds; assay: scar formation and tensile strength of adult rat skin wounds; assay type: in vivo
Excerpt: as §1

In the case of “TGF-β1: transforming growth factor (TGF)-β1, myofibroblast differentiation inducing agent”, the “interleukin (IL)-1β-mediated apoptosis in myofibroblasts” value ([1]; effect of TGF-β1) is reported as “completely blocked”.

B1: FMOD: fibromodulin protein; an example is SEQ ID NO:1 (Genebank NM 002023) (protein, listed as Homo sapiens)
chain: WTSLLLLAGLFSLSQAQYEDDPHWWFHYLRSQQSTYYDPYDPYPYETYEPYPYGVDEGPAYTYGSPSPPDPRDCPQECDCPPNFPTAMYCDNRNLKYLPFVPSRMKYVYFQNNQITSIQEGVFDNATGLLWIALHGNQITSDKVGRKVFSKLRHLERLYLDHNNLTRMPGPLPRSLRELHLDHNQISRVPNNALEGLENLTALYLQHNEIQEVGSSMRGLRSLILLDLSYNHLRKVPDGLPSALEQLYMEHNNVYTVPDSYFRGAPKLLYVRLSHNSLTNNGLASNTFNSSSLLELDLSYNQLQKIPPVNTNLENLYLQGNRINEFSISSFCTVVDVVNFSKLQVLRLDGNEIKRSAMPADAPLCLRLASLIEI
In the case of B1, the “α-smooth muscle actin (α-SMA) expression” value ([2]; FMOD alone, western blotting and qRT-PCR, N=3) is reported as “no significant effect”, the “TGF-β1-induced α-SMA expression” value ([2]; FMOD in the presence of TGF-β1, N=3) is reported as “significantly enhances” and the “TGF-β1-induced α-SMA expression” value ([2]; FMOD in the presence of TGF-β1, N=3, listed as Fibromodulin) is reported as “significantly promoted”. The “myofibroblast differentiation and contractility in vitro” value [3] was “significantly enhanced”, the “RDF contraction in collagen gel” value [4] was “minimal effects” and the “expression of α-SMA in wounds” value ([5]; early 3-day time-point) was “significantly upregulated”. For the same molecule, the “expression of α-SMA in wounds” value ([5]; late 7- and 14-day time-points) was “reduced”, the IL-1β expression ([5]; day 3 and 7 adult rat wounds) was “significantly stimulated” and the IL-10 expression ([5]; day 3 and 7 adult rat wounds, PCR array) was “significantly stimulated”. The myofibroblast apoptosis ([1]; FMOD alone) was “promoted myofibroblast apoptosis as effectively as IL-1β; also recorded: induces myofibroblast apoptosis as effectively as IL-10”, the myofibroblast apoptosis ([1]; in the presence of TGF-β1) was “promoted apoptosis even in the presence of TGF-1β” and the α-SMA-positive myofibroblasts [6] was “diminished; also recorded: decreased”. The collagen architecture ([7]; adult rat primary closure wounds) was “more organized collagen architecture”, the scar size ([7]; adult rat skin wounds, doses □ 0.4 mg/ml, day 14 post injury, compared to control) was “significant smaller scar; also recorded: significantly reduces” and the tensile strength ([7]; adult rat wounds) was “stronger tensile strength; also recorded: increasing tensile strength in a dose dependent manner”.
